This is an account of results in article PMC6446838.

Experiment [1] addresses full-length KIF5B-GFP with C-terminal Strep-tag (human) (UniProt P33176).
Experiment [2] has as its target K560-GFP with C-terminal Strep-tag, purified (human) (UniProt P33176).

Bounds are passed on as bounds.

Chain of Alexa Fluor 647–labeled SNAP-tag-MAP7, full length (Q14244 whole entry): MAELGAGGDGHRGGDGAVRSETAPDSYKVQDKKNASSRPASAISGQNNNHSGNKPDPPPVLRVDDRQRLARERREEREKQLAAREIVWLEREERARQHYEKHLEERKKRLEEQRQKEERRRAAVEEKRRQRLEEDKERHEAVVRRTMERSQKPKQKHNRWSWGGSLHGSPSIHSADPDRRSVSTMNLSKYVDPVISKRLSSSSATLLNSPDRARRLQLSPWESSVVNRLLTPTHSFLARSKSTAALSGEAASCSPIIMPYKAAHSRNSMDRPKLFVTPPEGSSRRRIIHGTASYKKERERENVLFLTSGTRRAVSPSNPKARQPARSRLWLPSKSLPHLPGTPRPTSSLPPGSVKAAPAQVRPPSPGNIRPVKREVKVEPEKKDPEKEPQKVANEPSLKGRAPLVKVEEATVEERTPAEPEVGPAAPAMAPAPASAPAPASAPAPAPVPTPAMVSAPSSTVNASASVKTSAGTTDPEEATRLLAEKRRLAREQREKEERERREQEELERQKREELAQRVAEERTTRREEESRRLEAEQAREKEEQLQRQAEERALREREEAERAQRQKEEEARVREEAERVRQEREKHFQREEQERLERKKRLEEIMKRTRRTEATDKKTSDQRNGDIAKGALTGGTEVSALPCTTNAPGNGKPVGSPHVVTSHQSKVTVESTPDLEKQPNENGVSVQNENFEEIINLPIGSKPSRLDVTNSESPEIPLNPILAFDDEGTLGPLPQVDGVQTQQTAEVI
Chain of K560-GFP with C-terminal Strep-tag, purified (human) (P33176 1-560): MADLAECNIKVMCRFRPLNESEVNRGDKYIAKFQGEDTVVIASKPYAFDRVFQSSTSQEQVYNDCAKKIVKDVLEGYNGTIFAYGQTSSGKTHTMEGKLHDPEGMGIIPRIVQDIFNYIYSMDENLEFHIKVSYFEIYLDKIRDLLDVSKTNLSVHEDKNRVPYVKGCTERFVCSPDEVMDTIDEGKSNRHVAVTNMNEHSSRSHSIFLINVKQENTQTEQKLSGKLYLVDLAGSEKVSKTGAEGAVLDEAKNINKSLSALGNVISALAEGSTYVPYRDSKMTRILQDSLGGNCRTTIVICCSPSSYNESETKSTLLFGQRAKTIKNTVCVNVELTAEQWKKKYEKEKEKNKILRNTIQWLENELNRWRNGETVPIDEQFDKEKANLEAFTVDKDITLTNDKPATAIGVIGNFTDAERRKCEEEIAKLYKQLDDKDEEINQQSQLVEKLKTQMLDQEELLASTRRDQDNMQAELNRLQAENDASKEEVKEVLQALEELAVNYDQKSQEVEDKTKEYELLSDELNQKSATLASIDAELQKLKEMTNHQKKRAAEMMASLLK
Chain of full-length KIF5B-GFP with C-terminal Strep-tag (human) (P33176 whole entry): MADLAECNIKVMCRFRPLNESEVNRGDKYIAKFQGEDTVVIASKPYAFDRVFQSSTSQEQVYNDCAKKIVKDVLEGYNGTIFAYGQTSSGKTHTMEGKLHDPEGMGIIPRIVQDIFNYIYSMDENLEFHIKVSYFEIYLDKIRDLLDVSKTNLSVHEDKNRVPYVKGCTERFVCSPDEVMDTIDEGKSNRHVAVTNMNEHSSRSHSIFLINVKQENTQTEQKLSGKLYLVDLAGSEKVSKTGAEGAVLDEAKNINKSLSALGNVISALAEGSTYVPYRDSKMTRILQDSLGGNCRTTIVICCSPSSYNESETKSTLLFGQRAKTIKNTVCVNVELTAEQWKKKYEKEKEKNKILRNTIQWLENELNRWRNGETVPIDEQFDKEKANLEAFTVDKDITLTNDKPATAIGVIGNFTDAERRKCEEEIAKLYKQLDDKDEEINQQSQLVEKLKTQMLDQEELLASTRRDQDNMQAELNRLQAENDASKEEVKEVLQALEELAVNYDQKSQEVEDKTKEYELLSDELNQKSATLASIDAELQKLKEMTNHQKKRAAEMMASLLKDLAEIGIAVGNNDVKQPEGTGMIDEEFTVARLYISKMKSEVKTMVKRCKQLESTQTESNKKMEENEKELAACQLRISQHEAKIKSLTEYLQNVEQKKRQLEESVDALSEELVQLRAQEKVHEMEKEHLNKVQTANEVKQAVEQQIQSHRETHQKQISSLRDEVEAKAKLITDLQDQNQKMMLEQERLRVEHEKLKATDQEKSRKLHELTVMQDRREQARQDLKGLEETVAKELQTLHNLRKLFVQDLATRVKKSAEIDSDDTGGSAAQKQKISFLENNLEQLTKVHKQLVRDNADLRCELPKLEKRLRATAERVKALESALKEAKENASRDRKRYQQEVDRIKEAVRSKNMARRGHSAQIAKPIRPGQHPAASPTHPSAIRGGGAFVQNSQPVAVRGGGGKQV

For “Alexa Fluor 647–labeled SNAP-tag-MAP7, full length (from UniProt Q14244 1-749) (natural protein)”, in experiment [1], the events of full-length KIF5B-GFP on dynamic MTs in vitro (short binding events and landing followed by processive movement), with MAP against kinesin alone is above 60 fold; the run length of full-length KIF5B-GFP on dynamic MTs in vitro, with MAP against kinesin alone turned out to be 1.6 fold. In experiment [2], this substance registered a landing frequency of K560-GFP on MAP-decorated dynamic MTs in vitro, increasing MAP concentrations, against K560 alone below 23.6 fold and a processivity (run length) of K560-GFP on dynamic MTs in vitro of 2 fold.
